# Test results taken from paper PMC12102759.
# B1: TPTE2 peptide 94-109 (Phosphatidylinositol 3,4,5-trisphosphate 3-phosphatase TPTE2), 16-mer library wild type / TLN1 PTB (TLN1 Phosphotyrosine-binding (PTB) domain, residues 309-401) (parent)
# chain 1: DLIFTDSKLYIPLEYR
# chain 2: GVSFFLVKEKMKGKNKLVPRLLGITKECVMRVDEKTKEVIQEWNLTNIKRWAASPKSFTLDFGDYQDGYYSVQTTEGEQIAQLIAGYIDIILK
# Variants of: B1
# Experiment: proteomic peptide phage display deep mutational scan (ProP-PD DMS): M13 P8 16-mer library selected against immobilised GST-tagged bait for four days (rounds), NGS of the eluted pools per day and pseudo-replica
# Conditions: with TLN1 PTB (TLN1 Phosphotyrosine-binding (PTB) domain, residues 309-401); bait immobilised on MaxiSorp plates (10 µg), library pre-cleared on GST, 2 h binding at 4 °C, five washes; one round per day, days 1-4; value from days 2 and 3; keep out of graded; scale: average fractional NGS count over selection days 2 and 3
row,Variant,screen value
1,chain 1 DLIFTDSKLYIPLDYR [chain 1 E14D],0.00114
2,chain 1 DLIFTDSKLYTPLEYR [chain 1 I11T],0.000474
3,chain 1 DLIFTDSKLYRPLEYR [chain 1 I11R],0.000323
4,chain 1 DLIWTDSKLYIPLEYR [chain 1 F4W],0.00189
5,chain 1 DLSFTDSKLYIPLEYR [chain 1 I3S],0.000211
6,chain 1 DLIFTDSKLYVPLEYR [chain 1 I11V],0.0012
7,chain 1 DLIFTDSKLYNPLEYR [chain 1 I11N],7.83e-05
8,chain 1 DLHFTDSKLYIPLEYR [chain 1 I3H],4.16e-05
9,chain 1 DLYFTDSKLYIPLEYR [chain 1 I3Y],0.000244
10,chain 1 DLIFTDSGLYIPLEYR [chain 1 K8G],0.000416
11,chain 1 DLIFTDSKLYQPLEYR [chain 1 I11Q],7.15e-05
12,chain 1 DLIFTDSELYIPLEYR [chain 1 K8E],0.000109
13,chain 1 DLEFTDSKLYIPLEYR [chain 1 I3E],0.00388
14,chain 1 DLIFTDSKLYIPLQYR [chain 1 E14Q],0.000195
15,chain 1 DLIFTDSKLYIPLTYR [chain 1 E14T],0.000246
16,chain 1 DLIFTGSKLYIPLEYR [chain 1 D6G],0
17,chain 1 DLIFTMSKLYIPLEYR [chain 1 D6M],0
18,chain 1 DLIFTDSILYIPLEYR [chain 1 K8I],0
19,chain 1 NLIFTDSKLYIPLEYR [chain 1 D1N],7.86e-05
20,chain 1 DLIFTDSKLYMPLEYR [chain 1 I11M],3.76e-05

row,Variant,screen value
1,chain 1 ILIFTDSKLYIPLEYR [chain 1 D1I],0
2,chain 1 DLIFTHSKLYIPLEYR [chain 1 D6H],3.45e-05
3,chain 1 DLIFTWSKLYIPLEYR [chain 1 D6W],3.79e-05
4,chain 1 DLIFTDSKLYFPLEYR [chain 1 I11F],6.22e-05
5,chain 1 DLLFTDSKLYIPLEYR [chain 1 I3L],0.00133
6,chain 1 DLIFTDSDLYIPLEYR [chain 1 K8D],0.00103
7,chain 1 DLIFTDSPLYIPLEYR [chain 1 K8P],0.0034
8,chain 1 DLIFTDSKLYLPLEYR [chain 1 I11L],0.00308
9,chain 1 DLIFTDSHLYIPLEYR [chain 1 K8H],0.00014
10,chain 1 DLWFTDSKLYIPLEYR [chain 1 I3W],0.000147
11,chain 1 DLKFTDSKLYIPLEYR [chain 1 I3K],0.00351
12,chain 1 DLIFTDSKLYIPLVYR [chain 1 E14V],3.45e-05
13,chain 1 DLIFTDSMLYIPLEYR [chain 1 K8M],0.000286
14,chain 1 DLIFTDSKLYIPLPYR [chain 1 E14P],0.00048
15,chain 1 HLIFTDSKLYIPLEYR [chain 1 D1H],0
16,chain 1 DLAFTDSKLYIPLEYR [chain 1 I3A],2.4e-05
17,chain 1 ALIFTDSKLYIPLEYR [chain 1 D1A],9.19e-05
18,chain 1 FLIFTDSKLYIPLEYR [chain 1 D1F],2.74e-05
19,chain 1 QLIFTDSKLYIPLEYR [chain 1 D1Q],3.51e-05

# The next lines start with the values.
row,screen value,Variant
1,0,chain 1 DLIFTDSKRYIPLEYR [chain 1 L9R]
2,0.00052,chain 1 DLIFTDSKLYIPLELR [chain 1 Y15L]
3,0.000378,chain 1 DAIFTDSKLYIPLEYR [chain 1 L2A]
4,0.000128,chain 1 DLIFNDSKLYIPLEYR [chain 1 T5N]
5,0.0004,chain 1 DLIFTDSKLYIPSEYR [chain 1 L13S]
6,0.0011,chain 1 DLIFTDSKLYIPLETR [chain 1 Y15T]
7,0.00137,chain 1 DLIFTDSSLYIPLEYR [chain 1 K8S]
8,0.000339,chain 1 DLIFTDSKLYIPTEYR [chain 1 L13T]
9,6.62e-05,chain 1 DLIFTDSKLYIPNEYR [chain 1 L13N]
10,0.000367,chain 1 DLIFTDSKLYIPREYR [chain 1 L13R]
11,0.00106,chain 1 DLIFQDSKLYIPLEYR [chain 1 T5Q]
12,2.74e-05,chain 1 DLIFTDSKLYIPHEYR [chain 1 L13H]
13,4.46e-05,chain 1 DLIFTDSKMYIPLEYR [chain 1 L9M]
14,3.05e-05,chain 1 DSIFTDSKLYIPLEYR [chain 1 L2S]
15,0.000711,chain 1 DLIFTDSKVYIPLEYR [chain 1 L9V]
16,0,chain 1 DLIFTDSKLYIELEYR [chain 1 P12E]
17,9.24e-05,chain 1 DLIFTDSTLYIPLEYR [chain 1 K8T]
18,0.000118,chain 1 DLIFIDSKLYIPLEYR [chain 1 T5I]
19,0.00103,chain 1 DLIFTDSKLYIPMEYR [chain 1 L13M]
20,8.75e-05,chain 1 DLIFYDSKLYIPLEYR [chain 1 T5Y]
21,0,chain 1 DLIFRDSKLYIPLEYR [chain 1 T5R]
22,0.000539,chain 1 DLIFTDSKLYIPLEKR [chain 1 Y15K]

row,screen value,Variant
1,0.000157,chain 1 DLIFTDSKLYIPLEFR [chain 1 Y15F]
2,0.000516,chain 1 DEIFTDSKLYIPLEYR [chain 1 L2E]
3,2.4e-05,chain 1 DLIFTDSKTYIPLEYR [chain 1 L9T]
4,3.05e-05,chain 1 DLIFTDSKLYIPDEYR [chain 1 L13D]
5,0.000173,chain 1 DIIFTDSKLYIPLEYR [chain 1 L2I]
6,0.00105,chain 1 DLIFTDSRLYIPLEYR [chain 1 K8R]
7,0.000483,chain 1 DLIFTDSKLYIPPEYR [chain 1 L13P]
8,0,chain 1 DLIFTDSKLYIWLEYR [chain 1 P12W]
9,0.000355,chain 1 DLIFTDSKLYIPLEHR [chain 1 Y15H]
10,0.000939,chain 1 DLIFTDSKLYIPLEGR [chain 1 Y15G]
11,0,chain 1 DLIFTDSVLYIPLEYR [chain 1 K8V]
12,0.000778,chain 1 DLIFTDNKLYIPLEYR [chain 1 S7N]
13,4.81e-05,chain 1 DLIFSDSKLYIPLEYR [chain 1 T5S]
14,0.00208,chain 1 DLIFTDSKLYIPLEWR [chain 1 Y15W]
15,0.00117,chain 1 DLIFTDSKLYIPLEPR [chain 1 Y15P]
16,0,chain 1 DLIFTDSKDYIPLEYR [chain 1 L9D]
17,0.000116,chain 1 DYIFTDSKLYIPLEYR [chain 1 L2Y]
18,6.96e-05,chain 1 DLIFTDSKLFIPLEYR [chain 1 Y10F]
19,0.000105,chain 1 DLIFTDSKLYIPGEYR [chain 1 L13G]
20,0.0028,chain 1 DLIFTDSKLYIPAEYR [chain 1 L13A]
21,5.82e-05,chain 1 DLIFTDSKLYIPEEYR [chain 1 L13E]
22,0,chain 1 DLIFKDSKLYIPLEYR [chain 1 T5K]
